Measurements taken from patent publication US20220332804A1 (CSL INNOVATION, published 2022).

Key:
Assay in all cases: SPR; KD relative to WT C2;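 further: biacore SPR at 37 °C, anti-C2 mAbs captured on an anti-human IgG chip, alanine or serine C2 surface mutants tested, KD from 1:1 fit compared with wild-type C2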
human C2 D417A = biological target: T1, human C2 D417A (human, UniProt P06681 21-752)
T1 sequence: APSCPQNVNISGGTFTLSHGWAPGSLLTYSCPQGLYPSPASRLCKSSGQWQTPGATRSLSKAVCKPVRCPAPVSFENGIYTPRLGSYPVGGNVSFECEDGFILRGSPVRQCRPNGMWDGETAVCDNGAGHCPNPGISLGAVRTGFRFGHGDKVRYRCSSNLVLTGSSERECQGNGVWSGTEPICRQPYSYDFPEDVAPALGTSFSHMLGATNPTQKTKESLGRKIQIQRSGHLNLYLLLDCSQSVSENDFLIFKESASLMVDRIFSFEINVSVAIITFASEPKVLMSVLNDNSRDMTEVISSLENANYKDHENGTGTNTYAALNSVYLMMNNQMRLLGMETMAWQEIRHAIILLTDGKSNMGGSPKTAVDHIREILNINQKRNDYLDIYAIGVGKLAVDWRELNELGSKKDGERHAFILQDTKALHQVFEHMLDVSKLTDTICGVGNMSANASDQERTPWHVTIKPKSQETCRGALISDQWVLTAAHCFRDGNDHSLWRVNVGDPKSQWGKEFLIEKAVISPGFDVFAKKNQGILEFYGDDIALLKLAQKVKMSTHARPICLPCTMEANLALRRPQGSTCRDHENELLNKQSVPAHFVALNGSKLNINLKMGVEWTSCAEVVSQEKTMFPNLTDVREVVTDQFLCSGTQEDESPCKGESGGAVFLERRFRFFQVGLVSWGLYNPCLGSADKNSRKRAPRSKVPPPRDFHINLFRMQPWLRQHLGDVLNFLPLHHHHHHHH
Method: (§1) Surface plasmon resonance (SPR, Biacore) was used for all binding affinity analyses. In brief, goat anti-human IgG was directly immobilised onto the carboxymethyl dextran surface of CM5 sensorchips to approximately 12,000 RU using standard NHS/EDC chemistry at pH 5. The immobilised antibody surface was pre-conditioned with ten injections of polyclonal human IgG (Privigen 60 s) prepared at 1 μg/mL. Ligands (anti-C2 mAbs) were captured at the beginning of each cycle as described below. An adjacent spot or flow cell in which only Polyclonal IgG was capture was used as a reference surface. The goat anti-human IgG Fc antibody surface was regenerate in 100 mM H3PO4, injected for 45 seconds at the end of each cycle. Experiments were performed at 37° C. and the flow rate of each experiment was kept constant at 30 μL/min.
(§2) Sensogram data was double-referenced against a reference anti-IgG surface (i.e. minus anti-C2 mAb) and blank buffer injections obtained within each experiment. The binding data was fit to 1:1 (kinetic or steady-state) model using local Rmax and null refraction index (RI=0) when appropriate. Buffers and solutions were filtered (0.22 μm) prior to use.
(§3) The C2 mutants were designed to test the importance of surface exposed residues for antibody binding. Residues located at either the N-terminal VWA domain or C-terminal protease domain of C were replaced by either alanine or serine and tested for binding against anti-C2 antibodies.

human C2 A326S = biological target: T2, human C2 A326S (human, UniProt P06681 21-752)
T2 sequence: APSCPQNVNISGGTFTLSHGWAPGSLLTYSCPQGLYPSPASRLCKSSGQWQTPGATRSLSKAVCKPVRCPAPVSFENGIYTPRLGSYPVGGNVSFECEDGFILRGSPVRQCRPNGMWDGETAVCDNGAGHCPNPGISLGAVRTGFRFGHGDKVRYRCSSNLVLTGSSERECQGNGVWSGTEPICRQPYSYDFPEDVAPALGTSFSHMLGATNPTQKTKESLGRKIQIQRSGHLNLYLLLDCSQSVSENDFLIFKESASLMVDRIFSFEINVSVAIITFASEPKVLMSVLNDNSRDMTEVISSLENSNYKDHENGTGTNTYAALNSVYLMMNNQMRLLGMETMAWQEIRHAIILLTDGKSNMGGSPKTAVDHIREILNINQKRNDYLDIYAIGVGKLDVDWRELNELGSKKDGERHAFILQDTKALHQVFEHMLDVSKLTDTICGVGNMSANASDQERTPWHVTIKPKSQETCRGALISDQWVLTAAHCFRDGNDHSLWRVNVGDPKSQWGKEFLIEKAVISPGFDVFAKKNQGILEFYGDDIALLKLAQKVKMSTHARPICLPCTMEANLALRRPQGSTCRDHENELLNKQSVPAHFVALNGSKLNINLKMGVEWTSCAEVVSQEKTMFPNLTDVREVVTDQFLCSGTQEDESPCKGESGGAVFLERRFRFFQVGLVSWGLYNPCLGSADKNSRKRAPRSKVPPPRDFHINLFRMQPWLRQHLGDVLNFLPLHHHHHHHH
Method: as §1, §2, §3

human C2 H446A = biological target: T3, human C2 H446A (human, UniProt P06681 21-752)
T3 sequence: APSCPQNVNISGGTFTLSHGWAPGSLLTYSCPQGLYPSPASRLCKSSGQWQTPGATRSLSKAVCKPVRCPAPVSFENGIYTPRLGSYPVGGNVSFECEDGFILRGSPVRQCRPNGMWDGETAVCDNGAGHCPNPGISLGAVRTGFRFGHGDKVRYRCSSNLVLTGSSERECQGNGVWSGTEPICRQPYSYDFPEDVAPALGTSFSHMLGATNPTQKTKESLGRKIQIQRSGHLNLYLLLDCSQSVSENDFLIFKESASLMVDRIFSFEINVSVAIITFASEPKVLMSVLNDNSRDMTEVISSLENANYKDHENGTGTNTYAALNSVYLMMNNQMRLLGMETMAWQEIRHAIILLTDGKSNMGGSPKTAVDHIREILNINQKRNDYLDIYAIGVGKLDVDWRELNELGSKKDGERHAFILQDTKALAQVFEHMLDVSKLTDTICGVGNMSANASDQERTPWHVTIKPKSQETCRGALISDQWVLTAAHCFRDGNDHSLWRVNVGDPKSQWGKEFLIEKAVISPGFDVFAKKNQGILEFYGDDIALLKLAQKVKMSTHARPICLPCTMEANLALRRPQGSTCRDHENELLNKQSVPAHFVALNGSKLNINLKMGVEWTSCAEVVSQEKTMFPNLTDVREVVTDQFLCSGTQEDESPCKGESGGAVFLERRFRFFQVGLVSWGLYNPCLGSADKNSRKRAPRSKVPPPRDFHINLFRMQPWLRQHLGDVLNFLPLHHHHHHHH
Method: as §1, §2, §3

human C2 S473A = biological target: T4, human C2 S473A (human, UniProt P06681 21-752)
T4 sequence: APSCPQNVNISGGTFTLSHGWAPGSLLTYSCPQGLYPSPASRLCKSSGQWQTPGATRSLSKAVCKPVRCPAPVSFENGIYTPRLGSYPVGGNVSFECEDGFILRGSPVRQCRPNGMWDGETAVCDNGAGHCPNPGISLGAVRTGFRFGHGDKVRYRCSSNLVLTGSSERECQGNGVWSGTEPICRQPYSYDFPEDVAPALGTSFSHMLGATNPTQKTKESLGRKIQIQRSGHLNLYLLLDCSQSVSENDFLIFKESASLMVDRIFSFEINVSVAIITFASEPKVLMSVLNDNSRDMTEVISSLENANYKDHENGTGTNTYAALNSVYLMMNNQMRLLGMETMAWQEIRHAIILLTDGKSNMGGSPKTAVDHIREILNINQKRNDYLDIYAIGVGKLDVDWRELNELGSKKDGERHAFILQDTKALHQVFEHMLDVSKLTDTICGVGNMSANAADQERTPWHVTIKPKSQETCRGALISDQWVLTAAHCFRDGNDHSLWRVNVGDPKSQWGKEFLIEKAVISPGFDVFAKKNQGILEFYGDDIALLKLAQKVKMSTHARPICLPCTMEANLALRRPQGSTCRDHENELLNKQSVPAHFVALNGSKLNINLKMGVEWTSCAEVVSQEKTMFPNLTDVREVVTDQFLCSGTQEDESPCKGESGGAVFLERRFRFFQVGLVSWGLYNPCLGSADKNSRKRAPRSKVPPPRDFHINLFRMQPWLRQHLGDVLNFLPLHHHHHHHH
Method: as §1, §2, §3

B1: RF16-214 (antibody, V domains shown)
VH: EVQLLESGGGLVQPGGSLRLSCAASGFTFSWYQMMWVRQAPGKGLEWVSRIYPSGGGTAYADSVKGRFTISRDNSKNTLYLQMNSLRAEDTAVYYCARDAGYGDNWGQGTLVTVSS
VL: QSALTQPPSVSVSPGQTASITCSGDKLGEKYASWYQQKAGQSPVMVIYQDRKRPSGIPERFSGSNSGNTATLTISGTQAMDEADYYCQAWDTRAVVFGGGTKLTVLG
Fold diff (human C2 D417A): 2 fold
Fold diff (human C2 A326S): 1 fold
Fold diff (human C2 H446A): 5 fold
Fold diff (human C2 S473A): 2 fold
